For five molecules, binding result and Kd results are on record in publication PMC7181697, “Molecular basis for assembly of the shieldin complex and its implications for NHEJ” (Nature Communications, 2020).

Common to all, as to details: both partners purified
Experiment [1] addresses T1, REV7^E35A-SHLD3(1–82)-REV7^K129A (human, UniProt Q9UI95 1-211; Q6ZNX1 1-82; Q9UI95 1-211, E35A | K129A).
T1 construct: REV7 (MAD2B, MAD2L2), human, full length; the C-REV7 of the dimer; SHLD3, human, residues 1-82; cloned without His-tag; the O-REV7 of the dimer; also called E35A-1–82 + K129A; reconstituted conformational dimer; source: reconstituted from purified REV7^E35A-SHLD3(1–82) and purified REV7^K129A (both E. coli BL21(DE3)); copies: + +
Nature of the experiment: SEC; Superdex 200 Increase 10/300 GL, 20 mM Tris/HCl pH 8.0, 150 mM NaCl, 1% glycerol, 1 mM TCEP; proteins mixed and incubated 10 min on ice; 0.5 ml fractions on SDS-PAGE, Coomassie. For orientation: In gel filtration, larger molecules generally elute earlier.

In experiment [2] the target is T2, REV7^K44A-SHLD3(1–82)-REV7^K129A (human, UniProt Q9UI95 1-211; Q6ZNX1 1-82; Q9UI95 1-211, K44A | K129A).
T2 construct: REV7 (MAD2B, MAD2L2), human, full length; the C-REV7 of the dimer; SHLD3, human, residues 1-82; cloned without His-tag; the O-REV7 of the dimer; also called K44A-1–82 + K129A; reconstituted conformational dimer; source: reconstituted from purified REV7^K44A-SHLD3(1–82) and purified REV7^K129A (both E. coli BL21(DE3)); copies: + +
T2 sequence (Q9UI95 whole entry K44A, chain 1 of 2, the tested form may be a part): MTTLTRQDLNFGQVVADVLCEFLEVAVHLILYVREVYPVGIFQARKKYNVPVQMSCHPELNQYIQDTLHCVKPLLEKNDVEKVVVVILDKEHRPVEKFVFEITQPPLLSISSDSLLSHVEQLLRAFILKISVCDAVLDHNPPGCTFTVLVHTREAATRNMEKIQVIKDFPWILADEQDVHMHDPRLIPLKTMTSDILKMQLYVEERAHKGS
T2 sequence (Q9UI95 whole entry K129A, chain 3 of 2, the tested form may be a part): as the sequence (Q9UI95 whole entry K44A, chain 1 of 2, the tested form may be a part) above, with A44K, K129A counted along it
Described as above.

The target in experiment [3] is T1, REV7^E35A-SHLD3(1–82)-REV7^K129A. Nature of the experiment: ITC; ITC200, 25 °C, 20 mM Tris pH 8.0, 150 mM NaCl, 1% glycerol, 1 mM TCEP; one set of sites model.
Experiment [4] has as its target T3, REV7^K129A (human, UniProt Q9UI95 1-211, K129A).
T3 construct: REV7 (MAD2B, MAD2L2), human, full length; also called O-REV7 (as used in the ITC and SEC experiments); source: E. coli BL21(DE3), purified (Ni-IDA, SEC); alone or co-expressed with SHLD3(1-82)
The description is as above.

In experiment [5] the target is T4, MBP-REV7^K129A (human, UniProt Q9UI95 1-211, K129A).
T4 construct: REV7 (MAD2B, MAD2L2), human; The cloning of this construct is not described in the methods; also called O-REV7; source: E. coli BL21(DE3), purified (Ni-IDA, SEC)
T4 sequence (Q9UI95 whole entry K129A): as the sequence (Q9UI95 whole entry K44A, chain 1 of 2, the tested form may be a part) above, with A44K, K129A counted along it
Put plainly: SEC; Superdex 200 Increase 10/300 GL, 20 mM Tris/HCl pH 8.0, 150 mM NaCl, 1% glycerol, 1 mM TCEP; proteins mixed and incubated 10 min on ice; 0.5 ml fractions on SDS-PAGE, Coomassie.

Experiment [6] concerns the target T5, REV7^Y63A (human, UniProt Q9UI95 1-211, Y63A).
T5 construct: REV7 (MAD2B, MAD2L2), human, full length; source: E. coli BL21(DE3), purified (Ni-IDA, SEC); alone or co-expressed with SHLD3(1-82)
Nature of the experiment: ITC; ITC200, 25 °C, 20 mM Tris pH 8.0, 150 mM NaCl, 1% glycerol, 1 mM TCEP; one set of sites model.

Experiment [7] concerns the target T6, REV7 (full length, wild type) (human, UniProt Q9UI95 1-211).
T6 construct: REV7 (MAD2B, MAD2L2), human, full length; Two copies (closed C-REV7 and open O-REV7) stand in the crystal structure 6KTO; also called REV7^WT; MAD2B; source: E. coli BL21(DE3), purified (Ni-IDA, SEC); alone or co-expressed with SHLD3 and SHLD2 truncations
The experiment is described as above.

For experiment [8], the target named is T7, REV7^W171A (human, UniProt Q9UI95 1-211, W171A).
T7 construct: REV7 (MAD2B, MAD2L2), human, full length; source: E. coli BL21(DE3), purified (Ni-IDA, SEC); alone or co-expressed with SHLD3(1-82)
T7 sequence (Q9UI95 whole entry W171A): as the sequence (Q9UI95 whole entry K44A, chain 1 of 2, the tested form may be a part) above, with A44K, W171A counted along it
The experiment is described as above.

Experiment [9] addresses T8, REV7^K44A-SHLD3(1–82)^FIPWFP/AIAAAA (human, UniProt Q9UI95 1-211; Q6ZNX1 1-82, K44A | FIPWFP/AIAAAA).
T8 construct: REV7 (MAD2B, MAD2L2), human, full length; SHLD3, human, residues 1-82; the FXPWFP motif stands at 38-43; cloned without His-tag; also called REV7^K44A-SHLD3(1–82)^5A; source: E. coli BL21(DE3), co-expressed (pETduet), purified (Ni-IDA, SEC)
The description is as above.

Experiment [10] concerns the target T9, REV7^K44A-SHLD3(45–82) (human, UniProt Q9UI95 1-211; Q6ZNX1 45-82, K44A).
T9 construct: REV7 (MAD2B, MAD2L2), human, full length; SHLD3, human, residues 45-82; cloned without His-tag; source: E. coli BL21(DE3), co-expressed (pETduet), purified (Ni-IDA, SEC)
The experiment is described as above.

The target in experiment [11] is T10, REV7^K44A-SHLD3(1–82)^F38A (human, UniProt Q9UI95 1-211; Q6ZNX1 1-82, K44A | F38A).
T10 construct: REV7 (MAD2B, MAD2L2), human, full length; SHLD3, human, residues 1-82; cloned without His-tag; source: E. coli BL21(DE3), co-expressed (pETduet), purified (Ni-IDA, SEC)
T10 sequence (Q9UI95 whole entry K44A, the tested form may be a part, one chain of several): as the sequence (Q9UI95 whole entry K44A, chain 1 of 2, the tested form may be a part) above
The experiment is described as above.

T1 sequence (Q9UI95 whole entry E35A, chain 1 of 2, the tested form may be a part): as the sequence (Q9UI95 whole entry K44A, chain 1 of 2, the tested form may be a part) above, with E35A, A44K counted along it
T1 sequence (Q9UI95 whole entry K129A, chain 3 of 2, the tested form may be a part): as the sequence (Q9UI95 whole entry K44A, chain 1 of 2, the tested form may be a part) above, with A44K, K129A counted along it
T6 sequence (Q9UI95 whole entry, the tested form may be a part): as the sequence (Q9UI95 whole entry K44A, chain 1 of 2, the tested form may be a part) above, with A44K counted along it
T5 sequence (Q9UI95 whole entry Y63A): as the sequence (Q9UI95 whole entry K44A, chain 1 of 2, the tested form may be a part) above, with A44K, Y63A counted along it
T8 sequence (Q9UI95 whole entry K44A, the tested form may be a part, one chain of several): as the sequence (Q9UI95 whole entry K44A, chain 1 of 2, the tested form may be a part) above
T9 sequence (Q9UI95 whole entry K44A, the tested form may be a part, one chain of several): as the sequence (Q9UI95 whole entry K44A, chain 1 of 2, the tested form may be a part) above
T3 sequence (Q9UI95 whole entry K129A): as the sequence (Q9UI95 whole entry K44A, chain 1 of 2, the tested form may be a part) above, with A44K, K129A counted along it

B1: MBP-SHLD2(1–60) (domain or fragment, human, UniProt Q86V20 1-60, looked up)
chain: MSGGSQVHIFWGAPIAPLKITVSEDTASLMSVADPWKKIQLLYSQHSLYLKDEKQHKNLE
notes: SHLD2, human, residues 1-60; Modified pET28a(+) with His6-MBP tag; also called MBP-1–60; source: E. coli BL21(DE3), purified (Ni-IDA, SEC); not shown: MBP, N-terminal, kept
B1: the binding result in experiment [1] and in experiment [2] was “binds” in each case.

B2: REV3(1847-1906) (domain or fragment, human, UniProt O60673 1847-1906, looked up)
chain: MLTPTPDSSPRSTSSPSQSKNGSFTPRTANILKPLMSPPSREEIMATLLDHDLSETIYQE
notes: amplified from cDNA of Jurkat cells; The methods name two vectors for REV3 truncations (His6-MBP and C-terminal His6); also called RBM1 of REV3; source: E. coli BL21(DE3), purified (Ni-IDA, SEC)
Turning to B2, the Kd in [3] came to 46 nM. In addition, the binding result in experiment [4] is recorded as “binds”.

B3: MBP-REV3(1847-1906) (domain or fragment, human, UniProt O60673 1847-1906, looked up)
chain: MLTPTPDSSPRSTSSPSQSKNGSFTPRTANILKPLMSPPSREEIMATLLDHDLSETIYQE
notes: Modified pET28a(+) with His6-MBP tag; source: E. coli BL21(DE3), purified (Ni-IDA, SEC)
As for B3, in experiment [5], the binding result is “binds”.

B4: SHLD3(1–82) with C-terminal His6-tag (domain or fragment, human, UniProt Q6ZNX1 1-82, looked up)
chain: MTTEVILHYRPCESDPTQLPKIAEKAIQDFPTRPLSRFIPWFPYDGSKLPLRPKRSPPVISEEAAEDVKQYLTISEHDAKSH
notes: SHLD3, human, residues 1-82; SHLD3(1-82) expressed alone for biochemical studies (pET28a(+)); source: E. coli BL21(DE3), purified (Ni-IDA, SEC)
With B4, the Kd in experiment [6] is roughly 200 nM; in experiment [7] it was roughly 130 nM; in [8] it was roughly 200 nM.

B5: cREV1 CTD (chimeric REV1 CTD: POL κ RIR fused to the N-terminus of REV1 CTD) (other, UniProt Q9UBT6 562-577, looked up)
chain: SHKKSFFDKKRSERKWGLSSLQSDPAGCVRPPAPNLAGAVEFNDVKTLLREWITTISDPMEEDILQVVKYCTDLIEEKDLEKLDLVIKYMKRLMQQSVESVWNMAFDFILDNVQVVLQQTYGSTLKVT
notes: source: E. coli BL21(DE3), purified (Ni-IDA, SEC)
For the molecule B5, the Kd in [9] amounted to 1100 nM; in experiment [10], 1400 nM; in [11], 6500 nM.

The Kd is the free concentration of one partner at which half of the binding sites on the other are occupied at equilibrium, for simple one-to-one binding.
